Laboratory results as given in publication PMC7196632, “NAD^+ biosynthesis in bacteria is controlled by global carbon/nitrogen levels via PII signaling” (The Journal of Biological Chemistry, 2020).
Blank lines part the entries; values can stand above or below the molecule they belong to.

Tests used:
[1] = target: T1, AbNadE2 (AbNadE2^Gln) (Azospirillum baldaniorum, UniProt A0A9P1JPD2); assay: discontinuous assay of PPi release (EnzChek pyrophosphate kit); type: biochemical; settings: read-out: IC50 (also called Ki)
T1 construct: gene nadE; full-length, untagged ('native AbNadE2'), recombinant from E. coli, purified as described previously; homodimer
T1 sequence (A0A9P1JPD2 1-554): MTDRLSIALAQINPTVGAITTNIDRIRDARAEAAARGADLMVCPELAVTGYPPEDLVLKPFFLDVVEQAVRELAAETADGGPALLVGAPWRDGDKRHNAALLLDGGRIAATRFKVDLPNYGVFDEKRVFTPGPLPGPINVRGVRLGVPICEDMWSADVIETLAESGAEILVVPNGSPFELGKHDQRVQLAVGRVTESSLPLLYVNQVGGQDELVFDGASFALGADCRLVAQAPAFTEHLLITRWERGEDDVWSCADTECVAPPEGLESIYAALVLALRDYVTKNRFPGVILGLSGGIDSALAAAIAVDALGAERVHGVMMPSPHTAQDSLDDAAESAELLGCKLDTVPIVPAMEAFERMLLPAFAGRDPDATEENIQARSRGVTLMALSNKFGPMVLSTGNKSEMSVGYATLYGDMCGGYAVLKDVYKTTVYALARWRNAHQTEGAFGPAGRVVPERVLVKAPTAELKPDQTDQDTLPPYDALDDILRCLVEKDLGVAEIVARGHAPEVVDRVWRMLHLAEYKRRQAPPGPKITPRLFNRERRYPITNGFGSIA

[2] = target: T2, GlnZ-AbNadE2 complex (NAD+ site on AbNadE2) (Azospirillum baldaniorum, UniProt A0A9P1JPD2); assay: as above; type: biochemical
T2 construct: gene nadE; with Nitrogen regulatory protein P-II 2

[3] = target: T3, ScNadE2 (ScNadE^Gln) (Synechocystis sp. PCC 6803, UniProt P74292); assay: as above; type: biochemical; settings: no PII (2 uM BSA); 100 nM enzyme, 4 mM ATP, 2 mM NaAD, 4 mM L-glutamine, 10 mM MgCl2, pH 8, 30 C
T3 construct: gene nadE; full-length, N-terminal His-tag removed with TEV protease, recombinant from E. coli (pTEV5-based pASnadESc); dimer
T3 sequence (P74292 1-558): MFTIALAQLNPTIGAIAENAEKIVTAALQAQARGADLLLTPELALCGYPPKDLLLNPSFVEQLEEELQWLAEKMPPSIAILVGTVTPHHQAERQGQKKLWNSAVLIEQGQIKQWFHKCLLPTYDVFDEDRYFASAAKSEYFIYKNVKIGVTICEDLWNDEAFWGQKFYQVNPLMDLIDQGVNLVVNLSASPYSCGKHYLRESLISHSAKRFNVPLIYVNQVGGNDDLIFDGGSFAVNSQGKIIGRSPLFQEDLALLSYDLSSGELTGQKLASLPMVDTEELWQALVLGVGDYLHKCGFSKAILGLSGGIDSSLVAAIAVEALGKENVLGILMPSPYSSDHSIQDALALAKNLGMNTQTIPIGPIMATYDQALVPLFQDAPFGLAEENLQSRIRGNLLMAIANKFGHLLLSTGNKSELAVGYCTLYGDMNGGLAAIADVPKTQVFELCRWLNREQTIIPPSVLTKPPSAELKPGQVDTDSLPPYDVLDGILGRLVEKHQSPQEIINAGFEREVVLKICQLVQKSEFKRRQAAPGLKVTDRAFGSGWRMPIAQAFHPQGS

[4] = target: T4, HsNadE2 (HsNadE2^Gln) (Herbaspirillum seropedicae, UniProt D8IX05); assay: as above; type: biochemical; settings: no PII (2 uM BSA); 100 nM enzyme, 4 mM ATP, 2 mM NaAD, 4 mM L-glutamine, 10 mM MgCl2, pH 8, 30 C
T4 construct: gene nadE; full-length, His-tag removed by thrombin, recombinant from E. coli; dimer
T4 sequence (D8IX05 1-565): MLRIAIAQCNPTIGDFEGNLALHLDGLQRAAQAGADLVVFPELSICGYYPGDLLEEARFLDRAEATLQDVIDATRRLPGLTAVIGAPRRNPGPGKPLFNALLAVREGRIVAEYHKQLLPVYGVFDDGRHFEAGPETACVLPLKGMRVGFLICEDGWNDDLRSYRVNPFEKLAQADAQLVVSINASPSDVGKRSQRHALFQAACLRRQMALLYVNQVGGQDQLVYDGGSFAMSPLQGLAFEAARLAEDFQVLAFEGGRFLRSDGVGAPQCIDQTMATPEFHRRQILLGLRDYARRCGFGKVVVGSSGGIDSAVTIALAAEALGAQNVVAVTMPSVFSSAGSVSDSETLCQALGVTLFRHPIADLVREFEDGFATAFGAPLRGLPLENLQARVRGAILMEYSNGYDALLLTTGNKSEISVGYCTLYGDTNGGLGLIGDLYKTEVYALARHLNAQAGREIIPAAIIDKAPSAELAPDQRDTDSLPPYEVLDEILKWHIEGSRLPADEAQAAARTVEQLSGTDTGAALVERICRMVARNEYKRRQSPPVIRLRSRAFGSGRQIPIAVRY

[5] = target: T5, GlnZ (with AbNadE2; 2-OG site on GlnZ) (Azospirillum brasilense, UniProt P70731); assay: biolayer interferometry, inhibition of GlnZ-AbNadE2 association; type: binding
T5 construct: GlnZ homotrimer, non-uridylylated (native in activity assay; N-terminal His-tag kept in BLI), recombinant from E. coli; with Glutamine-dependent NAD(+) synthetase
Procedure: biolayer interferometry, inhibition of GlnZ-AbNadE2 association on GlnZ (with AbNadE2; 2-OG site on GlnZ) | The binding curves and Ki were determined using the manufactureŕs software

[6] = target: T5, GlnZ (with AbNadE2; 2-OG site on GlnZ); assay: loss of GlnZ relief of NAD+ inhibition of AbNadE2 (PPi release); type: biochemical
[7] = target: N-terminal His-tagged GlnZ protein of Azospirillum brasilense (Azospirillum brasilense) (UniProt P70731); assay: BLI; Octet K2; His-GlnZ immobilised on Ni-NTA sensor tip, AbNadE2 as analyte, with ADP (methods: 50 mM Tris-HCl pH 7, 50 mM KCl, 10 mM MgCl2, 2 mM ADP, 2.5 mM NAD+, 1 mg/ml BSA)
[8] = target: N-terminal His-tagged GlnZ protein of Azospirillum brasilense (Azospirillum brasilense) (UniProt P70731); assay: BLI; Octet K2; His-GlnZ (2 ug/ml) immobilised on Ni-NTA sensor tip, AbNadE2 30-2000 nM (dimer) as analyte, with ATP (legend: 5 mM MgCl2, 1 mM ATP; methods: 50 mM Tris-HCl pH 7, 50 mM KCl, 10 mM MgCl2, 2 mM ATP, 2.5 mM NAD+, 1 mg/ml BSA)
[9] = target: Azospirillum brasilense type 2 glutamine-dependent NAD synthetase AbNadE2, native (untagged), purified (Azospirillum brasilense)
[10] = substrate: NC(=O)CC[C@H](N)C(=O)O; assay: purified protein; settings: without NAD+, pH 8, 30 C
[11] = substrate: Nc1ncnc2c1ncn2[C@@H]1O[C@H](COP(=O)(O)OP(=O)([O-])OC[C@H]2O[C@@H]([n+]3cccc(C(=O)O)c3)[C@H](O)[C@@H]2O)[C@@H](O)[C@H]1O; assay: NAD synthetase activity, Michaelis-Menten fit; type: biochemical, Azospirillum baldaniorum; settings: without NAD+, pH 8, 30 C

Chain of N-terminal His-tagged GlnZ protein of Azospirillum brasilense (Azospirillum brasilense) (P70731 entry or part of it): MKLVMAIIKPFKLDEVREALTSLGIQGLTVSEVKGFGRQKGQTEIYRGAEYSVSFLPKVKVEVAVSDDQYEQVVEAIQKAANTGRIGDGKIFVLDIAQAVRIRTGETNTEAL
T5 sequence (P70731 1-112, one chain of several): as the sequence (P70731 entry or part of it) above
T2 sequence (P70731 1-112 partner, one chain of several): as the sequence (P70731 entry or part of it) above
Chain of Azospirillum brasilense type 2 glutamine-dependent NAD synthetase AbNadE2, native (untagged), purified (Azospirillum brasilense) (A0A0P0EJG6 entry or part of it): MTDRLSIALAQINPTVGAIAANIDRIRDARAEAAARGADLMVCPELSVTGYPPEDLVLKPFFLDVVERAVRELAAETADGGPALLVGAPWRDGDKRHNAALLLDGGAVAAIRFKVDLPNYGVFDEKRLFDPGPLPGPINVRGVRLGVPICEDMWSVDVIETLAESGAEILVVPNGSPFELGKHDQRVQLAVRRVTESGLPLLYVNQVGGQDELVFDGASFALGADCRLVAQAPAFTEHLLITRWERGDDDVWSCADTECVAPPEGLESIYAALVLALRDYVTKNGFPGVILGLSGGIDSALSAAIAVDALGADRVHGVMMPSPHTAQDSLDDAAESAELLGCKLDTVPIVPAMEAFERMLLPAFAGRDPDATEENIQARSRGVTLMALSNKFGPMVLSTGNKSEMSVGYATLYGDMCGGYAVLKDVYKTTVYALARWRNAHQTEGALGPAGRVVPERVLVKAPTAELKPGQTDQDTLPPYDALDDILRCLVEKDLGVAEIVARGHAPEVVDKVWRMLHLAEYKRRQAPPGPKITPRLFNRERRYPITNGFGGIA

- IC50 [1]: 1000 µM
- IC50 [2]: 2500 µM
Molecule: NC(=O)c1ccc[n+]([C@@H]2O[C@H](COP(=O)([O-])OP(=O)(O)OC[C@H]3O[C@@H](n4cnc5c(N)ncnc54)[C@H](O)[C@@H]3O)[C@@H](O)[C@H]2O)c1 [NAD^+]
- relative activity vs NAD+ concentration [3]: In both cases, NadE2^Gln was inhibited by NAD^+ in a dose-dependent manner
- relative activity vs NAD+ concentration [4]: In both cases, NadE2^Gln was inhibited by NAD^+ in a dose-dependent manner

- activation of AbNadE2 NAD synthetase activity (PPi formation) at 2.5 mM NAD+, 100 nM AbNadE2, GlnZ 0.25-10 uM (trimer); Kact [9]: 640 nM
Molecule: N-terminal His-tagged GlnZ protein of Azospirillum brasilense (from UniProt P70731 1-112) (natural protein)

The next lines start with the molecule.

Molecule: O=C(O)CCC(=O)C(=O)O [2-oxoglutarate]
- Ki [5]: 52.1 µM
- IC50 [6]: 15.5 µM

Molecule: Azospirillum brasilense type 2 glutamine-dependent NAD synthetase AbNadE2, native (untagged), purified (enzyme)
- Kd [7]: 0.15 µM
- Kd [8]: 0.3 µM
- koff [8]: 0.0272 s⁻¹
- kon [8]: 90900 M⁻¹ s⁻¹

B1: AbNadE2 (AbNadE2^Gln) (Azospirillum baldaniorum) (protein)
chain: MTDRLSIALAQINPTVGAITTNIDRIRDARAEAAARGADLMVCPELAVTGYPPEDLVLKPFFLDVVEQAVRELAAETADGGPALLVGAPWRDGDKRHNAALLLDGGRIAATRFKVDLPNYGVFDEKRVFTPGPLPGPINVRGVRLGVPICEDMWSADVIETLAESGAEILVVPNGSPFELGKHDQRVQLAVGRVTESSLPLLYVNQVGGQDELVFDGASFALGADCRLVAQAPAFTEHLLITRWERGEDDVWSCADTECVAPPEGLESIYAALVLALRDYVTKNRFPGVILGLSGGIDSALAAAIAVDALGAERVHGVMMPSPHTAQDSLDDAAESAELLGCKLDTVPIVPAMEAFERMLLPAFAGRDPDATEENIQARSRGVTLMALSNKFGPMVLSTGNKSEMSVGYATLYGDMCGGYAVLKDVYKTTVYALARWRNAHQTEGAFGPAGRVVPERVLVKAPTAELKPDQTDQDTLPPYDALDDILRCLVEKDLGVAEIVARGHAPEVVDRVWRMLHLAEYKRRQAPPGPKITPRLFNRERRYPITNGFGSIA
notes: full-length, untagged ('native AbNadE2'), recombinant from E. coli, purified as described previously; homodimer
- Km [10]: 720 µM
- Km [11]: 80 µM
